Assay results reported in publication PMC7737734.

Tests used:
[1] = target: ZIKV full-length envelope protein E with A264C, as displayed on virus-like particles (VLP-cvD) (Zika virus (strain PE243)); assay: non-reducing SDS-PAGE and Western blot of a disulfide-linked dimer; purified VLPs on SDS-PAGE under reducing (DTT) or nonreducing conditions, E detected with the monoclonal antibody DIII-1B
[2] = target: ZIKV soluble envelope protein E, covalently stabilized dimer (sE-cvD), A264C, V5-tagged (Zika virus (strain ArD158095)); assay: non-reducing SDS-PAGE of a disulfide-linked dimer; purified sE proteins on 10% SDS-PAGE under reducing (DTT) and nonreducing conditions, gel stained with InstantBlue

Substance | stoichiometry N [1] | stoichiometry N [2]
ZIKV full-length envelope protein E with A264C, as displayed on virus-like particles (VLP-cvD) (natural protein) | 2 | –
ZIKV soluble envelope protein E, covalently stabilized dimer (sE-cvD), A264C, V5-tagged (domain or fragment) | – | 2
